Measurements taken from publication PMC2787765.

Target: αB-crystallin triply substituted analog (serine residues 19, 45 and 59 mutated to aspartic acids) (UniProt P02511)
Assay: back-scattering interferometry

T4 lysozyme L99A-A130S double mutant (from UniProt P00720 1-164) (enzyme)
KD1 (high affinity mode): 0.132 µM
KD2 (low affinity mode): 33 µM
kf1 (forward rate, high affinity mode): 58500 M⁻¹ s⁻¹
kf2 (forward rate, low affinity mode): 2970 M⁻¹ s⁻¹
kr1 (reverse rate, high affinity mode): 5.03e-06 s⁻¹
reverse rate, low affinity mode (row printed as kr1): 0.115 s⁻¹

T4 lysozyme D70N (from UniProt P00720 1-164) (enzyme)
KD1 (high affinity mode): 0.595 µM
KD2 (low affinity mode): 29.1 µM
kf1 (forward rate, high affinity mode): 25500 M⁻¹ s⁻¹
kf2 (forward rate, low affinity mode): 2340 M⁻¹ s⁻¹
kr1 (reverse rate, high affinity mode): 0.0152 s⁻¹
reduction in magnitude of the steady-state BSI signal relative to T4L-L99A-A130S: 40%
